Laboratory results taken from patent US20140199692A1.

Target: eukaryotic translation initiation factor eIF4E (endogenous, in lysates of human cell lines) (UniProt P06730)
Assay: immunoprecipitation of eIF4E from nuclear lysates

Chain of eukaryotic translation initiation factor eIF4E (endogenous, in lysates of human cell lines) (P06730 2-217 limits assumed): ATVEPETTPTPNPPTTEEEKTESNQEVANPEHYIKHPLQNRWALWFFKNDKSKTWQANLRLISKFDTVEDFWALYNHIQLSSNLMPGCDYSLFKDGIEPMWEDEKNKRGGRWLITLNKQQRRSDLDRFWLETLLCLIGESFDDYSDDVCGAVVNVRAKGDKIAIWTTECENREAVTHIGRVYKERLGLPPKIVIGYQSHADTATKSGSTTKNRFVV

mouse monoclonal anti-eIF4E Ab (BD Transduction Laboratories) (antibody)
efficiency of IP: < 80%
